Assay results reported in patent US20190015518A1, “DRUG DELIVERY COMPOSITIONS AND METHODS” (priority 2016, published 2019).

Assays:
[1] = tested on: MDA-1986 (human head and neck squamous cell carcinoma) cells; experiment: Anti-proliferative activity (Resazurin Blue, 72 hours); assay type: cell-based; details: listed as HA-Lys-Pt 75 kDa
Experimental: MDA-1986 (human head and neck squamous cell carcinoma), 4T1.2-neu (murine breast cancer cells), and A2058 (human melanoma) cells were maintained in Dulbecco's Modified Eagle Medium (DMEM, Corning, Manassas, Va.) with 4.5 g/L glucose, 4.5 g/L L-glutamine, and 10% fetal bovine serum in a humidified incubator at 37° C. and 5% CO2. Cells were seeded into 96-well plates (3,000 cells/well in 90 μL media) and allowed to attach overnight. […] Resazurin Blue (Acros Organics, Geel, Belgium) in PBS was added to each well (5-μM final concentration; 10-μL addition) and incubated at 37° C. for 4 hours. Fluorescence (λex 550 nm, λem 605 nm) was quantified with a SpectraMax Gemini XS plate-reader (Molecular Devices, Sunnyvale, Calif.). The relative growth of cells incubated with each compound concentration was normalized to vehicle-treated controls (100% proliferation). Data from at least three separate experiments performed in duplicate was analyzed using non-linear regression (GraphPad Prism 5.0) to generate IC50 values.

[2] = Clinical chemistry of a healthy dog given 1.5 mg/kg on day 1 and 2.0 mg/kg on day 70, sub-mucosa; assay type: in vivo
Experimental: Before each dose, the dog was examined by clinical chemistry, hematology, and urinalysis. Additional examinations of clinical chemistry and hematology were performed on days 7, 14, and 42 after the first dose. Additional tests of urinalysis were performed on days 7 and 14 after the first dose. The potential drug-induced toxicities were monitored for 56 days after the second dose. Specifically, clinical chemistry and urinalysis were performed on days 7, 14, 21, and 56, and hematology was performed on days 7, 14, and 56 after the second dose to evaluate the tolerability and toxicity of the formulation.
Clinical chemistry examinations were performed at pre- and post-dose for both injections. The injections were given via the sub-mucosa in the mouth.

## HA-cis-[Pt(NH3)2(N^α-Acetyl-L-Lysine)] [75HA-Lys-Pt]
[1]; mean ± S.E.M., cisplatin basis
  IC50: 39.8 ± 4.4 µM
[1]; text b180
  IC50: ~21 µM
[2]; 2 mg/kg, 7-days post-dose
  ALP elevation: 0.7 fold
  ALT elevation: 4.6 fold
  AST elevation: 8.7 fold
[2]; 2 mg/kg, 8-weeks post-dose
  ALP, higher than the pre-dose level: 0.27 fold
[2]; 2 mg/kg, 7 days after
  Alanine aminotransferase: 330 U/L
  Albumin: 2.5 g/dL
  Alkaline phosphatase: 237 U/L
  Aspartate aminotransferase: 309 U/L
  Calcium: 9.3 mg/dL
  Cholesterol: 81 mg/dL
  Creatine kinase: 105 U/L
  Creatinine: 0.25 mg/dL
  Gamma glutamyltransferase: 0 U/L
  Globulin: 2.9 g/dL
  Glucose: 83 mg/dL
  Inorganic Phosphorus: 2.8 mg/dL
  Total Bilirubin: 0.3 mg/dL
  Total Protein: 5.4 g/dL
  Triglyceride: 32 mg/dL
  Urea Nitrogen: 11 mg/dL
[2]; 2 mg/kg, 14 days after
  Alanine aminotransferase: 223 U/L
  Albumin: 2.4 g/dL
  Alkaline phosphatase: 249 U/L
  Calcium: 8.6 mg/dL
  Cholesterol: 75 mg/dL
  Creatine kinase: 143 U/L
  Creatinine: 0.3 mg/dL
  Gamma glutamyltransferase: 0 U/L
  Glucose: 76 mg/dL
  Inorganic Phosphorus: 3.4 mg/dL
  Total Bilirubin: 0.1 mg/dL
  Total Protein: 5.5 g/dL
  Triglyceride: 43 mg/dL
  Urea Nitrogen: 14 mg/dL
[2]; 2 mg/kg, 21 days after
  Alanine aminotransferase: 198 U/L
  Albumin: 2.7 g/dL
  Alkaline phosphatase: 219 U/L
  Aspartate aminotransferase: 129 U/L
  Calcium: 9.3 mg/dL
  Cholesterol: 70 mg/dL
  Creatinine: 0.33 mg/dL
  Gamma glutamyltransferase: 0 U/L
  Glucose: 64 mg/dL
  Inorganic Phosphorus: 3.9 mg/dL
  Total Bilirubin: 0.2 mg/dL
  Total Protein: 5.8 g/dL
  Triglyceride: 39 mg/dL
  Urea Nitrogen: 14 mg/dL
[2]; 2 mg/kg, 56 days after
  Alanine aminotransferase: 220 U/L
  Albumin: 3.0 g/dL
  Alkaline phosphatase: 173 U/L
  Aspartate aminotransferase: 138 U/L
  Calcium: 9.7 mg/dL
  Cholesterol: 86 mg/dL
  Creatine kinase: 117 U/L
  Creatinine: 0.3 mg/dL
  Gamma glutamyltransferase: 0 U/L
  Globulin: 3.3 g/dL
  Glucose: 73 mg/dL
  Inorganic Phosphorus: 2.5 mg/dL
  Total Bilirubin: 0.4 mg/dL
  Total Protein: 6.3 g/dL
  Triglyceride: 42 mg/dL
  Urea Nitrogen: 14 mg/dL
[2]; […], 7 days after
  Alanine aminotransferase: 36 U/L
  Albumin: 2.4 g/dL
  Alkaline phosphatase: 132 U/L
  Aspartate aminotransferase: 67 U/L
  Calcium: 8.8 mg/dL
  Cholesterol: 89 mg/dL
  Creatine kinase: 93 U/L
  Creatinine: 0.33 mg/dL
  Globulin: 2.6 g/dL
  Glucose: 70 mg/dL
  Inorganic Phosphorus: 3.3 mg/dL
  Total Bilirubin: 0.1 mg/dL
  Total Protein: 5.0 g/dL
  Triglyceride: 34 mg/dL
  Urea Nitrogen: 13 mg/dL
[2]; […], 14 days
  Alanine aminotransferase: 57 U/L
  Albumin: 2.4 g/dL
  Alkaline phosphatase: 116 U/L
  Aspartate aminotransferase: 89 U/L
  Calcium: 9.4 mg/dL
  Cholesterol: 97 mg/dL
  Creatine kinase: 207 U/L
  Creatinine: 0.35 mg/dL
  Globulin: 2.8 g/dL
  Glucose: 80 mg/dL
  Inorganic Phosphorus: 5.5 mg/dL
  Total Bilirubin: 0.0 mg/dL
  Total Protein: 5.2 g/dL
  Triglyceride: 38 mg/dL
  Urea Nitrogen: 19 mg/dL
[2]; […], 42 days
  Alanine aminotransferase: 74 U/L
  Albumin: 3.0 g/dL
  Alkaline phosphatase: 125 U/L
  Aspartate aminotransferase: 39 U/L
  Creatine kinase: 159 U/L
  Globulin: 2.5 g/dL
  Total Bilirubin: 0.0 mg/dL
  Total Protein: 5.5 g/dL
